The text below walks through data of paper PMC3843708, “Mutational Analysis of Sclerostin Shows Importance of the Flexible Loop and the Cystine-Knot for Wnt-Signaling Inhibition” (PLoS ONE, 2013).

Assay [1] concerns the target LRP6 first propeller domain (Homo sapiens) (UniProt O75581). Conditions: cited from earlier work.
In assay [2] the target is LRP6 second propeller domain (Homo sapiens) (UniProt O75581). The following applies: cited from earlier work.
The next assay concerns the target LRP6 E1E2 (Homo sapiens) (UniProt O75581). Conditions: cited from earlier work.
Another assay concerns the target LRP6 E3E4 (Homo sapiens) (UniProt O75581). The following applies: cited from earlier work.
A further assay addresses human LRP6 (human, UniProt O75581 20-1613). Nature of the assay: cell-based or functional assay.
Assay [3] concerns the target T1, human LRP6 protein fragment comprising propeller domains E1 and E2 (LRP6E1E2) (human, UniProt O75581 20-630).
T1 sequence (looked up): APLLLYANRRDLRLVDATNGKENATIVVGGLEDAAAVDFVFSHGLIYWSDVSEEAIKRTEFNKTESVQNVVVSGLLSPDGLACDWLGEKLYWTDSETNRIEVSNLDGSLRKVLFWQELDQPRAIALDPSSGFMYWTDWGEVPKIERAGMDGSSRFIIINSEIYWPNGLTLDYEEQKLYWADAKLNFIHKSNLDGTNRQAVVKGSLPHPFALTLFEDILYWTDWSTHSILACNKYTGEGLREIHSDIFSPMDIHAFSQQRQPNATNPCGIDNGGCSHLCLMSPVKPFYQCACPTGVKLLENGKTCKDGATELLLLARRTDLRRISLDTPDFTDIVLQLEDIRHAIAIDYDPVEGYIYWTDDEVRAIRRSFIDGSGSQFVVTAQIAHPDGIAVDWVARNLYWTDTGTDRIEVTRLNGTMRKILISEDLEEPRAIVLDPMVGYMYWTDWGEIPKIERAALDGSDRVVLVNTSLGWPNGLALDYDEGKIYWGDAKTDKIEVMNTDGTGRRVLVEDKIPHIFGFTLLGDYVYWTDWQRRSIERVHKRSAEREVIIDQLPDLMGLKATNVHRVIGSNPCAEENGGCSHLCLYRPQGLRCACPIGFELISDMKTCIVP
Kind of assay: cell-based or functional assay.

Positions count from the first letter of the chain named. Numbers in names are those of the source.

Sequence of LRP6 E3E4 (Homo sapiens) (O75581 631-1246): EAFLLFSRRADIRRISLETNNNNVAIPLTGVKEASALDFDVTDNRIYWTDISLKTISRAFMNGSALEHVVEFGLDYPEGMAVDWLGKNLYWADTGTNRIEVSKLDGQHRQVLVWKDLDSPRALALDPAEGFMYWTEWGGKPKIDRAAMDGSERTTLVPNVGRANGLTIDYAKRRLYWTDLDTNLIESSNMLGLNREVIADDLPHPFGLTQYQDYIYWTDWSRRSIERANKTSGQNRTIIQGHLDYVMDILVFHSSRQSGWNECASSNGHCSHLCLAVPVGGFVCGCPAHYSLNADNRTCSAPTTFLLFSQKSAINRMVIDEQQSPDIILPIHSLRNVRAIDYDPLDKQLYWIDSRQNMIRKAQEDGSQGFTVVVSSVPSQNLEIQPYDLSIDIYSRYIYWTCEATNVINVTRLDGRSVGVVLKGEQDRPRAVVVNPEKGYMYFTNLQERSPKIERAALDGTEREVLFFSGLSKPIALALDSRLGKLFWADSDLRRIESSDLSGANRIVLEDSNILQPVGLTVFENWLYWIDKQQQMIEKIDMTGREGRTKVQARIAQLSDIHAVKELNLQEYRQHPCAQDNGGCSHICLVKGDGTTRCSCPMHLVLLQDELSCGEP

By Kd is commonly meant a measure of binding affinity in units of concentration. Consider Sclerostin (from UniProt Q9BQB4), for which the Kd in assay [1] is 60 nM; in assay [2], 1300 nM. In the case of Dkk1 (from UniProt O94907), the Kd with LRP6 E1E2 (Homo sapiens) and in the assay with LRP6 E3E4 (Homo sapiens) was 60 nM throughout.

B1: Sclerostin ΔLoop (natural protein, murine, UniProt Q99P68 24-211, looked up)
chain: QGWQAFRNDATEVIPGLGEYPEPPPENNQTMNRAENGGRPPHHPYDAKDVSEYSCRELHYTRFLTDGPCRSAKPVTELVCSGQCGPARLGSGPDFRCIPDRYRAQRVQLLCPGGAAPRSRKVRLVASCKCKRLTRFHNQSELKDFGPETARPQKGRKPRPGARGAKANQAELENAY
modifications: 125I-iodinated (Chloramine T) where used as radioligand; biotinylated (EZ-Link Sulfo-NHS-LC-Biotin, molar ratio 1:1.5) in the pull-down
B1: in the assay with human LRP6, the “IC50 of inhibition of Wnt1-driven SuperTOPFlash luciferase reporter, HEK-293TSA M50 cells transfected with mWnt1” value (from here on “IC50 of inhibition … with mWnt1”) came to 806 nM and the “IC50 of inhibition of Wnt3a-driven SuperTOPFlash luciferase reporter, HEK-293TSA M50 cells with 1.5 nM mWnt3a” value worked out at 655 nM.

B2: wildtype full-length murine Sclerostin (natural protein, UniProt Q99P68 24-211, looked up)
chain: QGWQAFRNDATEVIPGLGEYPEPPPENNQTMNRAENGGRPPHHPYDAKDVSEYSCRELHYTRFLTDGPCRSAKPVTELVCSGQCGPARLLPNAIGRVKWWRPNGPDFRCIPDRYRAQRVQLLCPGGAAPRSRKVRLVASCKCKRLTRFHNQSELKDFGPETARPQKGRKPRPGARGAKANQAELENAY
modifications: 125I-iodinated (Chloramine T) where used as radioligand; biotinylated (EZ-Link Sulfo-NHS-LC-Biotin, molar ratio 1:1.5) in the pull-down
Regarding B2, in the assay with human LRP6, the “IC50 of inhibition … with mWnt1” value was 10 nM.

B3: Sclerostin C84AC142R (natural protein, murine, UniProt Q99P68 24-211, looked up)
chain: B2 chain with C84A, C142R
modifications: biotinylated (EZ-Link Sulfo-NHS-LC-Biotin, molar ratio 1:1.5) in the pull-down
As to B3, the “fold decrease against wildtype of the efficiency to inhibit Wnt1-driven SuperTOPFlash luciferase reporter (supernatants of HEK Freestyle cells expressing the variant)” value in assay [3] was 10 fold.

B4: Sclerostin I94A (natural protein, murine, UniProt Q99P68 24-211, looked up)
chain: B2 chain with I94A
With B4, the “IC50 of inhibition … with mWnt1” value with human LRP6 was determined as 26.9 nM.

B5: Sclerostin N92A (natural protein, murine, UniProt Q99P68 24-211, looked up)
chain: B2 chain with N92A
With B5, in the assay with human LRP6, the “IC50 of inhibition … with mWnt1” value is 196 nM.

B6: Sclerostin Alaloop (natural protein, murine, UniProt Q99P68 24-211, looked up)
chain: B2 chain with L90S, N92G, I94S, R96A, V97R, K98S, W99G, W100S, R101A, N103A
modifications: 125I-iodinated (Chloramine T) where used as radioligand
B6: in the assay with human LRP6, the “IC50 of inhibition … with mWnt1” value worked out at 831 nM and the “IC50 of inhibition of Wnt3a-driven SuperTOPFlash luciferase reporter, HEK-293TSA M50 cells with 1.5 nM mWnt3a” value is 1110 nM.
